The nature of the series: label from the status in PepcDB records.
Consider “VMEIEARLEDVRQRIADVAEKSGRKAADVALVAVSKTFDAEAIQPVIDAGQRVFGENRVQEAQGKWPALKEKTSDIELHLIGPLQSNKAADAVALFDVVESIDREKIARALSEECARQGRSLRFYVQVNTGLEPQKAGIDPRETVAFVAFCRDELKLPVEGLMCIPPAEENPGPHFALLAKLAGQCGLEKLSMGMSGDFETAVEFGATSVRVGSAIFGSR”, for which the protein production entry is “not failed”.
To “VNSVAARVTELTGREVAAVAERGHSHRWHLYRVELADGTPLFVKALPDDAPALDGLFRAEALGLDWLGRSFGSPVPQVAGWDDRTLAMEWVDERPPTPEAAERFGHQLAAMHLAGAESFGATWDGYIGPLPMDNTPRSTWPEFYAEQRILPYLRRAADRGALTPGDVRLVEKVLDALDHLAGDPEPPARIHGDLWNGNVLWQDDGAVVIDPAAHGGHREADLAMLALFGLPYLDRVRDAYNEVAPLAEGWRARIPLHQLHPLLVHVCLFGAAYRTTLVDTARAALRA” belongs “not failed”; to “VPPPGTMVMVERKVGSWVDGQPIDLQRDWRSWEQLPDSLKVAVIAGEDQHFAEHHGFDLPAIQQALAHNERGGSIRGASTLSQQVAKNVFLWSGRSWLRKGLEAWFTLLIETLWTKQRILEVYLNSAEWGPGVFGAQAAARYHFGLDAERLSRTQASQLAAVLPSPLKWSAARPGPYVRQRAAWIRQQMWQLGGDDYLLRLER”, “failed”.
The value for “VQIKNATAIVTGASSGIGLAFASLLAQKGYNLLLIARNINKLNDLAKTLSTQYDTQCNVLSIDLSEENASKKVLEYIITNNLNISVLINNAGFSGNYKFLEADWSQLSKELNVMSIAVTELCYLIAPLMEKNSWGRIINVSSGAAYLPPTQSLLYTGLKSYVLNFSQSLDMELKPKGINVTALCPGFTRSEFHNTMGTNKQVSKVPNFLWQAPDQVA” was “failed”; that for “VQTPALIIVTGHPATGKTTLSQALATGLRLPLLSKDAFKEVMFDGLGWSDREWSRRVGATAIMMLYHTAATILQSGQSLIMESNFRVDLDTERMQNLHTIAPFTPIQIRCVASGDVLVERILSRIAQGARHPGHCDDRSPADLELVRSRGDIPPLPLGGPLLTVDTTFPEQIDMNAIVQWVRQHLQSGTAFL” was “not failed”.
As for “VRPDGRGKVTGELKYMTDLSFPGMLYGKVLRSAYPHAEIVSVCTIKAEKMEGVQAVVTHKDVPGLNRFGIVIPDQPVLCEDRVRYVGDAIAAVAAETEEIAEAALELIQVEYKELEVMDSPEKALRPNAQRLHEDGNILHRAFFSNGDVEEGFQASDTVFEETYELPRQMHTYMETEGGVAVPEDDGGFTMYAGTQHGYKDRFQLARIFDIPEEKIRIVSSPMGGSFGGKDELNIQPYAALLALKSGRPVKIHQTRKESVRSGIKRHPMKITIKTGADHSGNLLAHDVKIVADTGAYATLGPAVLDFSVEHAAGPYRIPNIRTEGISVFTNNGVAGEFRGFGGNQITFALETHLDRLSGMLGIDPLELRRKNIRKPHDLGPLEHRIAPTDGAAQVLNAISKSPILKKTSRNCGYLQRGTGAAITMHGGGLGFGRMDAAGGRLSLSSEGKITASFGFEECGQGILAAIEQIVMEELGCAAEDISIVIGDTAKVPKSGSSTASRGTSMVWHAIQRLKKPFLAQLKKRAAEWSGCSAENLIPGAAGLRDKNTKALVVTYKELAEKGPLAEETAFDFPTTPDPVVGGHFLYSFGAAAVEVEVDLLTGDVKLIDCEHAIAAGPVVSPQGYRGQIEGGAAMALGYTLMEEAKMTDGRYAAENLDHYLIPGIKDVPDMKLIAIEDLMKGDVYGPRGVGEIGTIAITPAIVKAVHDAVGCWINKLPISREELLEAIDRKGL”, the protein production entry is on record as “failed”.
For “VRPGDTEIDKLVALIDAADKVTLFCGSGTAGAHAEVMEFAEKIKSPVGHALRGKEWIQYDNPYDVGMSGLLGYGAAYEATNECDLLILLGTDFPYNAFLPTDVKIAQVDVRPERLGRRSKLDLAVWGDVRETLRCLIPRVKPKENRRFLDKMLKKHADALEGVIKAYTRKVEK”, the protein production result is recorded as “failed”.
To “VSDRPAGRMPLTVHRNVGRWLSEILHASIRDTGVSSRIEFVRRTLHGWVREEYSETELPNAVYRNLYFPVLDAQPAHAGSGKIETISECDRLKNLVRNVTDTLVENYPQGLESEALLIALDGVKLELARIRKDIEMYGDPRKR” belongs “not failed”.
Turning to “VSIPANNSPVRLALIGAGRWGKNYIRTIAGLPGAALVRLASSNPDNLALVPPGCVIESDWRSVVSAPEVEAVIIATPPATHAEITLAAIASGKAVLVEKPLTLDLAEAEAVAAAAKATGVMVWVEHTQLFNPAWEALKADLTSIGPILAVRSEAGNHGPYRPGGVPMLWDWGAHDVSMVLDLMGRDPDSTSASWAARGEKDGGEAGDVTLTLAFSTVEAHIRLCNTMDKCRRLAVFGEAGTLVMDDRATDKLTLHPPQPDGNWPVGQGHALTVTDEMPLTRAVRLFAGAVRQPEPGPSPLELGLRVVRVLGACS”, the protein production result is reported as “not failed”.
To “VSVIMPVLNEERHLRGAVQAILAQEYDGEMEVVIAIGPSSDRTEEIAAELVREDPRVHTVPNPTGRTPAALNAAIKASRHPVVVRVDGHGMLSPNYIATAVRLLAETGAQNVGGIMHAEGENDWEHAVAAAMTSKIGVGNAAFHTGGEAGPAETVYLGVFRREALEQQGGYNEEFIRAQDWELNFRIREAGGLIWFSPELKVSYRPRPSVRALAKQYKDYGRWRHVVARYHEGSINLRYLAPPTAVCAIAAGVVVGLALTPWGLVVPGGYLAAIALGS” belongs “failed”; to “VTLLVKSPNQRHRDLELSGDRGWSVGHLKAHLSRVYPERPRPEDQRLIYSGKLLLDHQCLRDLLPKQEKRHVLHLVCNVK”, “not failed”.
The value for “VTSDPGTAAPVKRTAEQSRSLIVDAAGRAFATRPYREITLKDIAEDAGVSAPLIIKYFGSKEQLFDALVDFRAAAEIVFSGPLDGLGERMVSMFARPLEPYKPLSLNILFMSGPSEESSRKLRANYSAQMIDALAERLPGRDARLRAELVMSMLTGLAVMRRKMMQEHATGTPEEVVAHYAPLVQELLDG” was “not failed”.
In the case of “VVQRAAETYDLLKQRTEELRRANAQMSLLTVLVQVTQASNSLEAILTPIATAFAESFAVNACILQMLEGQTLSTIQGFYSQQGTVNNWLNQDPLTNEAIATGQIQVAANIAKDPKLASISQYQDNGIQSHVVIPITYRNEMLGVLSLQWQQPISLREDELTLIHLSAQLVAIALTSSRCSL”, the protein production result was “not failed”.
To “WKPELDELARRENFAQQMGGIDKVKRQHDQGRLTVRERIDRLSDAGSFHEIGAVAGLGEYDANGELINLTPANCVFGRAKIDGRTVVVVGDDFTVRGGSADASIHAKPQMAEEMAHDYRLPIIRVIEGSGGGGSVRTIESKGAANLPGGVDGTRWYWYTTAN” belongs “failed”.
To “WRGIRQRKLHAEELLRLAMAHLRNQGKPVRIVDIAAGHGRYILESLRGVEPLPESILLRDYSDINVRDGSLLIEQKDLEDIARFVKGDAFDRNDLATLDPKPTLAVVSGLYELFSSNQMVGDSLAGLAAAVEPGGYLVYTGQPWHPQLELIARALTSHREGQAWVMRRRSQSEMDQLVEAAGFRKITQRVDEW” belongs “failed”.
To “WTCNKFRCGEKRLTRSLCACSDDCKDQGDCCINYSSVCQGEKS” belongs “not failed”; to “YAMSIYAAQHDVRIVNPYFVPTSSIRKALKRALNRGTKVEIMISSKSDIPFTPDASLYAVQKLMKKGAMIYLYNGGFHHSKIMMVDDLFCTVGTANLNSRSLRYDYETNAFIFDKDITQQLNDVFEADMLHCTRLTPEMWKQKSAWKKFKCWFANLFTPFL”, “failed”; to “YLYFNSDSFILLIAPTRSGKGVGVVIPNLLVYNQSMVILDLKQENFSITSKYRAKYGQQVFLFNPFTENGQTHRYNPLSYVREGDCKIGDILTITASFYPIDDLKNSFWNNQASNLFLGLALMISETPSLPFTIGELLRQSSGKGKPLKEYLQGIMDDREKSSSPLSESCIDALNRFIALTDNSLSNVLASFNAPLTLWANPLFDAATSANDFDLRELRKKKMTVYIGITPDYLEQAERILNLFFSQLININTKELPEHNPELKYQCLLVMDEFTAMGRIGILAKSVSYMAGYGLRLLTIIQAPSQLDSVYGKEEARTYKTNHAGQILFAPRENEDAEEYSKAIGYKTVKAKSNSKTRGELKQTDSTSDQRRAVMLPQEIKEIGMWKEIICIENLKPIFCKKVQYFNDPVFIDRLKEVSS”, “failed”.
For “YQAIYRRATTYLAMGRGKAAIVDLERVLELKPDFYGARIQRGNILLKQGELEAAEADFNIVLNHDSSN”, the protein production entry is given as “failed”.
The value for “YTSADNTWEPEENCDCPNLIQKFEESRAKSKKRGEKKPKCEEIQKLRGYERGLELAEIVGATDVTGDIKYLVRWQFCDEFDLVPSAQIVEKDPQMLIDYFQK” was “failed”; that for “YVFTVELERGPSGLGMGLIDGMHTHLGAPGLYIQTLLPGSPAAADGRLSLGDRILEVNGSSLLGLGYLRAVDLIRHGGKKMRFLVAKSDVETAKKIH” was “not failed”.

These data come from a protein production outcome set (Wang et al. 2014).
